In patent US20040001839A1 (published 2004):
No end group written: not given here. *: point of attachment. sulfate = O=S(=O)(O)*

B2: Y1 scFv (scFv)
scFv: EVQLVESGGGVVRPGGSLRLSCAASGFTFDDYGMSWVRQAPGKGLEWVSGINWNGGSTGYADSVKGRFTISRDNAKNSLYLQMNSLRAEDTAVYYCARMRAPVIWGQGTLVTVSRGGGGSGGGGSGGGGSSELTQDPAVSVALGQTVRITCQGDSLRSYYASWYQQKPGQAPVLVIYGKNNRPSGIPDRFSGSSSGNTASLTITGAQAEDEADYYCNSRDSSGNHVVFGGGTKLTVLGAAAEQKLISEEDLNGAA
notes: Fully human scFv from the Nissim I phage library; Used biotin-labelled in most Western blots; also called scFv Y1; scFv-Y1

Assays:
PSGL-1 on KG-1 cells [1] = target: T1, PSGL-1 on KG-1 cells (human, UniProt Q14242 42-412, sulfated tyrosine residues at the N-terminal site); experiment: FACS on KG-1 cells, FITC-labeled
T1 construct: whole, on cells; results on KG-1 cells, lysates and membrane fractions are written against this molecule; also called CD162; P-Selectin Glycoprotein Ligand-1
T1 sequence (looked up): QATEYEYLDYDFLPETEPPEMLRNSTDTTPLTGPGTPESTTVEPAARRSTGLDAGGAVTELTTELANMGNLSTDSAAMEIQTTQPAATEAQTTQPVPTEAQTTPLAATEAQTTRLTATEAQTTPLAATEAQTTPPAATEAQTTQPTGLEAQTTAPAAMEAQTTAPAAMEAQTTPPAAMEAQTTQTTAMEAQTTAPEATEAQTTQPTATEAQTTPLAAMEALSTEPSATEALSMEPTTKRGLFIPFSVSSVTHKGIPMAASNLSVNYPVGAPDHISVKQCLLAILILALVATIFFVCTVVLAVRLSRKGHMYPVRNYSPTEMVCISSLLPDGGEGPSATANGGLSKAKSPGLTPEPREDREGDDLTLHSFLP

PSGL-1 on KG-1 cells [2] = target: T1, PSGL-1 on KG-1 cells; experiment: radioreceptor assay, ELISA or FACS; KG-1 cells
PSGL-1 on KG-1 cells [3] = target: T1, PSGL-1 on KG-1 cells; experiment: radio receptor assay on KG-1 cells, dimer as competitor
PSGL-1 on KG-1 cells [4] = target: T1, PSGL-1 on KG-1 cells; experiment: radio receptor binding assay on KG-1 cells, tracer 125I-Y1-IgG 2 ng/tube
Procedure: (§1) The assay tubes contained 5×10⁶ KG-1 cells per 0.2 ml and a labeled tracer with varying amounts of unlabeled competitor, in PBS+0.1% BSA, pH 7.4. After one hour incubation with agitation at 4° C., the cells were thoroughly washed with cold buffer and taken for radioactivity counting.

PSGL-1 on KG-1 cells [5] = target: T1, PSGL-1 on KG-1 cells; experiment: second radio receptor binding assay on KG-1 cells, labeled tracer 100 ng/tube
Procedure: as §1

Lumican = target: T2, Lumican (human, UniProt P51884 19-338, contains sulfated tyrosine residues); experiment: Western blot of human plasma proteins
T2 construct: The ~80 kDa band was identified as CC4 and lumican together; also called human lumican; H P-ligand 2
T2 sequence (looked up): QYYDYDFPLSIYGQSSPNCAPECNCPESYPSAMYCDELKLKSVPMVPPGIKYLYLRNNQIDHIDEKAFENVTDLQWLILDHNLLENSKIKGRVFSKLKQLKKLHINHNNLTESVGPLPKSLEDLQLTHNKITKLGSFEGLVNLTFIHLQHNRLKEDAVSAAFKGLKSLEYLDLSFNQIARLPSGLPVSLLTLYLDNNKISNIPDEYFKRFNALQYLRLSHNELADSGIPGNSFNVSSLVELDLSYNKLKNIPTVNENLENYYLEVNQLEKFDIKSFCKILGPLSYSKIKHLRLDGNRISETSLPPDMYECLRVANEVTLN

PSGL-1 on KG-1 cells [6] = target: T1, PSGL-1 on KG-1 cells; experiment: Western blot of RP-HPLC KG-1 membrane fraction after O-Sialo glycoprotein endopeptidase, 30' at 37° C.
PSGL-1 on KG-1 cells [7] = target: T1, PSGL-1 on KG-1 cells; experiment: FACS on KG-1 cells
[8] = target: T3, GPIbα small N-terminal 42 kDa fragment (His1-Leu275) (human, UniProt P07359 17-291); experiment: Western blot of cathepsin G digested glycocalicin
T3 construct: also called smaller N-terminal fragment (cathepsin G)
T3 sequence (P07359 17-291 limits assumed): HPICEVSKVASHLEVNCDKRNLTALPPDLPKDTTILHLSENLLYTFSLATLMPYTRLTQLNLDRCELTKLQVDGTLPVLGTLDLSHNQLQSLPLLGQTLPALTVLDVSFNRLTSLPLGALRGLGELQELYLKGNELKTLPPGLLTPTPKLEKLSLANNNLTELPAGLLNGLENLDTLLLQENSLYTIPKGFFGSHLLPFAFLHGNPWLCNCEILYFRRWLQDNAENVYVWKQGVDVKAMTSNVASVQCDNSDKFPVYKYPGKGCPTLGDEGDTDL
Source text: Glycocalicin and glycocalicin fragments generated by cathepsin G digestion were separated on SDS-polyacrylamide gels and transferred to nitrocellulose.

Y1 scFv [9] = target: B2; experiment: competition ELISA: Y1 0.25 µg/well preincubated with peptide at 25 µM, residual binding to glycocalicin
Y1 scFv [10] = target: B2; experiment: competition ELISA: Y1 0.25 µg/well preincubated with peptide at 0.5 µM, residual binding to glycocalicin
Y1 scFv [11] = target: B2; experiment: competition ELISA: Y1 0.25 µg/well preincubated with peptide at 2.5 µM, residual binding to glycocalicin
Y1 scFv [12] = target: B2; experiment: competitive FACS: Y1-scFv 1 µg preincubated with peptide at 2.5 µM, residual binding to washed platelets
Procedure: (§2) In addition, FACS analysis using washed platelets was carried out. […] A polystyrene microtiter maxisorb plate was coated with (a) purified glycocalicin or (b) washed platelets. […] The plate was then incubated with rabbit anti-scFv followed by addition of anti rabbit-HRP (horse radish peroxidase) and HRP substrate. […] The optical density was measured at A₄₀₅. Each sample was assayed in duplicate, and the average was calculated.

Y1 scFv [13] = target: B2; experiment: competitive FACS: Y1-scFv 1 µg preincubated with peptide at 200 µM, residual binding to washed platelets
Procedure: as §2

Y1 scFv [14] = target: B2; experiment: competition ELISA: peptide (1, 10, 100 µM) preincubated with scFv Y1, binding to immobilized glycocalicin

B1: Y1-cys-kak (cysteine dimer) (other)
scFv 1: MEVQLVESGGGVVRPGGSLRLSCAASGFTFDDYGMSWVRQAPGKGLEWVSGINWNGGSTGYADSVKGRFTISRDNAKNSLYLQMNSLRAEDTAVYYCARMRAPVIWGQGTLVTVSRGGGGSGGGGSGGGGSSELTQDPAVSVALGQTVRITCQGDSLRSYYASWYQQKPGQAPVLVIYGKNNRPSGIPDRFSGSSSGNTASLTITGAQAEDEADYYCNSRDSSGNHVVFGGGTKLTVLGGGGCKAK
scFv 2: MEVQLVESGGGVVRPGGSLRLSCAASGFTFDDYGMSWVRQAPGKGLEWVSGINWNGGSTGYADSVKGRFTISRDNAKNSLYLQMNSLRAEDTAVYYCARMRAPVIWGQGTLVTVSRGGGGSGGGGSGGGGSSELTQDPAVSVALGQTVRITCQGDSLRSYYASWYQQKPGQAPVLVIYGKNNRPSGIPDRFSGSSSGNTASLTITGAQAEDEADYYCNSRDSSGNHVVFGGGTKLTVLGGGGCKAK
modifications: Interchain disulfide between Cys 243 of chain 1 and Cys 243 of chain 2; in the FACS of paragraph 474 the dimer also carried FITC.
notes: also called Y1-cys-kak scFv dimer; S-S Y1 dimer
fold less material than the monomer (PSGL-1 on KG-1 cells [1]): 10 fold | fold higher binding than the Y1 scFv monomer (PSGL-1 on KG-1 cells [2]): ≥ 20 fold | fold more efficient than the monomer (PSGL-1 on KG-1 cells [3]): 30 fold | Kd (PSGL-1 on KG-1 cells [4]): ~40 nM | fold higher affinity than CONY1 (PSGL-1 on KG-1 cells [4]): 30 fold | fold lower affinity than the full Y1 antibody (PSGL-1 on KG-1 cells [4]): 2 fold | Kd (PSGL-1 on KG-1 cells [5]): ~50 nM | fold higher affinity than CONY1 (PSGL-1 on KG-1 cells [5]): 20 fold

B2
binding result (Lumican): binds | binding result (PSGL-1 on KG-1 cells [6]): binds

B3: Y17 scFv (scFv)
scFv: EVQLVESGGGVVRPGGSLRLSCAASGFTFDDYGMSWVRQAPGKGLEWVSGINWNGGSTGYADSVKGRFTISRDNAKNSLYLQMNSLRAEDTAVYYCARLTHPYFWGQGTLVTVSRGGGGSGGGGSGGGGSSELTQDPAVSVALGQTVRITCQGDSLRSYYASWYQQKPGQAPVLVIYGKNNRPSGIPDRFSGSSSGNTASLTITGAQAEDEADYYCNSRDSSGNHVVFGGGTKLTVLGAAAEQKLISEEDLNGAA
notes: Human scFv selected on platelets in the same way as Y1; also called biotin labeled-Y17
binding result (PSGL-1 on KG-1 cells [7]): binds | binding result [8]: no binding

B4: Y1-IgG (antibody, V domains shown)
VH: EVQLVESGGGVVRPGGSLRLSCAASGFTFDDYGMSWVRQAPGKGLEWVSGINWNGGSTGYADSVKGRFTISRDNAKNSLYLQMNSLRAEDTAVYYCARMRAPVIWGQGTLVTVSR
VL: SELTQDPAVSVALGQTVRITCQGDSLRSYYASWYQQKPGQAPVLVIYGKNNRPSGIPDRFSGSSSGNTASLTITGAQAEDEADYYCNSRDSSGNHVVFGGGTKLTVL
Kd (PSGL-1 on KG-1 cells [4]): ~20 nM

B5: CONY1 (scFv)
scFv: EVQLVESGGGVVRPGGSLRLSCAASGFTFDDYGMSWVRQAPGKGLEWVSGINWNGGSTGYADSVKGRFTISRDNAKNSLYLQMNSLRAEDTAVYYCARMRAPVIWGQGTLVTVSRGGGGSGGGGSGGGGSSELTQDPAVSVALGQTVRITCQGDSLRSYYASWYQQKPGQAPVLVIYGKNNRPSGIPDRFSGSSSGNTASLTITGAQAEDEADYYCNSRDSSGNHVVFGGGTKLTVLGAAAKAK
notes: also called Y1-kak; Y1 scFv monomer
Kd (PSGL-1 on KG-1 cells [5]): ~1000 nM

REEGRQHFFLLEGRSSYS (also called negative control peptide) [EGR]
Residual Binding of Y1 (% of baseline) (Y1 scFv [9]): 89% | Residual Binding of Y1 (% of baseline) (Y1 scFv [10]): 121% | Residual Binding of Y1 (% of baseline) (Y1 scFv [11]): 100% | Residual Binding of Y1 (% of baseline) (Geo Mean) (Y1 scFv [12]): 96% | Residual Binding of Y1 (% of baseline) (Geo Mean) (Y1 scFv [13]): 119%

B6: P-2-S (peptide)
peptide: TDLY(sulfate)DY(sulfate)Y(sulfate)PEEDTE
notes: also called residues 273-285 of GPIbα, sulfated
Residual Binding of Y1 (% of baseline) (Y1 scFv [9]): 15% | Residual Binding of Y1 (% of baseline) (Y1 scFv [10]): 78% | Residual Binding of Y1 (% of baseline) (Y1 scFv [11]): 52% | Residual Binding of Y1 (% of baseline) (Geo Mean) (Y1 scFv [12]): 61% | Residual Binding of Y1 (% of baseline) (Geo Mean) (Y1 scFv [13]): 7%

B7: P-3-S (peptide)
peptide: GDEGDTDLY(sulfate)DY(sulfate)Y(sulfate)P
notes: also called residues 268-280 of GPIbα, sulfated
Residual Binding of Y1 (% of baseline) (Y1 scFv [9]): 21% | Residual Binding of Y1 (% of baseline) (Y1 scFv [10]): 80% | Residual Binding of Y1 (% of baseline) (Y1 scFv [11]): 67% | Residual Binding of Y1 (% of baseline) (Geo Mean) (Y1 scFv [12]): 82% | Residual Binding of Y1 (% of baseline) (Geo Mean) (Y1 scFv [13]): 26%

B8: F-YY (peptide)
peptide: VRPEHPAETEYESLYPEDDL
notes: also called Fibrinogen-γ-prime chain peptide, non-sulfated
binding result (Y1 scFv [14]): no binding (tested: 100 µM)

B9: F-Y*Y* (peptide)
peptide: VRPEHPAETEY(sulfate)ESLY(sulfate)PEDDL
notes: also called Fibrinogen-γ-prime chain peptide, sulfated
binding result (Y1 scFv [14]): no binding (tested: 100 µM)
